Source: patent US20110142812A1 (STC UNM, published 2011)

Assays:
[1] = target: T1, human FcγRI (human, UniProt P12314 16-292, limits assumed); test: surface plasmon resonance, human FcγR
T1 construct: also called CD64

[2] = target: T2, mouse FcγRI on macrophages (mouse, UniProt P26151 25-404); test: two-color flow cytometry on mouse peritoneal macrophages (FcγRIIb-/-), FITC-2C10 detection
T2 construct: whole, on cells; The receptor is assigned by using macrophages from knockout mice; Other receptors may be present on these cells; also called FcγRI on mouse macrophages (from FcγRIIb-/- mice)
T2 sequence (looked up): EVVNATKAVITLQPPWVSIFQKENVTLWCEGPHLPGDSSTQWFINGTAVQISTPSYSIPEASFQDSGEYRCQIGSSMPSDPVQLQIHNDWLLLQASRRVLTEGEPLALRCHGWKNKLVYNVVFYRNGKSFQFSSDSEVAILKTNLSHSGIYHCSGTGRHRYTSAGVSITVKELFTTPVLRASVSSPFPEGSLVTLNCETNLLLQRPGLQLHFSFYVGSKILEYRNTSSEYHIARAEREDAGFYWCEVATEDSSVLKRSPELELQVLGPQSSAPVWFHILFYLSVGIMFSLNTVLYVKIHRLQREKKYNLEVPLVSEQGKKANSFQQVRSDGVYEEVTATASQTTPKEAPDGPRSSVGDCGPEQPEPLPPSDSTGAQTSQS

T1 sequence (P12314 16-292 limits assumed): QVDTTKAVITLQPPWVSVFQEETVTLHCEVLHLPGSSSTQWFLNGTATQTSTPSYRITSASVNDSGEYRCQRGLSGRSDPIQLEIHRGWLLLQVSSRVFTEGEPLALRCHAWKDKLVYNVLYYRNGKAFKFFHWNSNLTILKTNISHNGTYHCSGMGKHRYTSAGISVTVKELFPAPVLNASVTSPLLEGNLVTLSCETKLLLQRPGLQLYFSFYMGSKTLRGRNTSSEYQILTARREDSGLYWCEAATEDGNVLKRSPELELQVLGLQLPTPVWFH

binding result [1]: binds
binding result [2]: binds
B1: Y175L CRP (recombinant mutant C-reactive protein in which tyrosine 175 is replaced by leucine) (ligand)
chain: QTDMSRKAFVFPKESDTSYVSLKAPLTKPLKAFTVCLHFYTELSSTRGYSIFSYATKRQDNEILIFWSKDIGYSFTVGGSEILFEVPEVTVAPVHICTSWESASGIVEFWVDGKPRVRKSLKKGYTVGAEASIILGQEQDSFGGNFEGSQSLVGDIGNVNMWDFVLSPDEINTILLGGPFSPNVLNWRALKYEVQGEVFTKPQLWP
notes: also called CRP mutant Y175L; recombinant mutant CRP (Y175L)
